Assay results reported in US12295997B2, “Prostate neoantigens and their uses” (Janssen Biotech, Inc., priority 2020, dated 2025).

B1: FVSLTAIQMASSATPWGRWPVATPTAACPRRRPSSLPTGGDSASKKPISRRAPWQPWACPGRSVNSAAPRAWCPPATTPRTQSPSRDLRPRCLSSWSS (peptide, listed as Homo sapiens)
chain: FVSLTAIQMASSATPWGRWPVATPTAACPRRRPSSLPTGGDSASKKPISRRAPWQPWACPGRSVNSAAPRAWCPPATTPRTQSPSRDLRPRCLSSWSS
notes: FASN alternative splicing
B2: WGMELAASRRFSWDHHSAGGPPRVPSVRSGAAQVQPKDPLPLRTLAGCLARTAHLRPGAESLPQPQLHCT (peptide, listed as Homo sapiens)
chain: WGMELAASRRFSWDHHSAGGPPRVPSVRSGAAQVQPKDPLPLRTLAGCLARTAHLRPGAESLPQPQLHCT
notes: INCA1->CAMTA2 gene fusion
B3: LWFQSSELSPTGAPWPSRRPTWRGTTVSPRTATSSARTCCGTKWPSSQEAALGLGSGLLRFSCGTAAIR (peptide, listed as Homo sapiens)
chain: LWFQSSELSPTGAPWPSRRPTWRGTTVSPRTATSSARTCCGTKWPSSQEAALGLGSGLLRFSCGTAAIR
notes: NME4->DECR2 gene fusion
B4: QNLQNGGGSRSSATLPGRRRRRWLRRRRQPISVAPAGPPRRPNQKPNPPGGARCVIMRPTWPGTSAFT (peptide, listed as Homo sapiens)
chain: QNLQNGGGSRSSATLPGRRRRRWLRRRRQPISVAPAGPPRRPNQKPNPPGGARCVIMRPTWPGTSAFT
notes: ZFHX3 E763Sfs*61
B5: LLNAEDYRCAIHSKEIYLLSPSPHQAMDKFSLCCINCNLCLHVFLLLLFFQNKDVWLISNIILLWIYGGI (peptide, listed as Homo sapiens)
chain: LLNAEDYRCAIHSKEIYLLSPSPHQAMDKFSLCCINCNLCLHVFLLLLFFQNKDVWLISNIILLWIYGGI
notes: TM9SF3 alternative splicing
B6: PSGRRTKRLVTLRSGCAIQCWHPRAGPVPSALPHTERPPRLVRGAADPRTVTLGRSPAVMPRAPA (peptide, listed as Homo sapiens)
chain: PSGRRTKRLVTLRSGCAIQCWHPRAGPVPSALPHTERPPRLVRGAADPRTVTLGRSPAVMPRAPA
notes: CCNF alternative splicing
B7: FGLTTLAGRSSHGTSGLRAATHTKSGDGGQGAARQCEKLLELARATRPWGRSTSASSRWTHRGYMCPPRCAVACW (peptide, listed as Homo sapiens)
chain: FGLTTLAGRSSHGTSGLRAATHTKSGDGGQGAARQCEKLLELARATRPWGRSTSASSRWTHRGYMCPPRCAVACW
notes: PEX10 alternative splicing
B8: LQAAASGQGKQGVPCPWGCCAYAESPRALISGDAPSQVEREVPGPCLNTHSLSHRSPQLPGLPHPKQPSV (peptide, listed as Homo sapiens)
chain: LQAAASGQGKQGVPCPWGCCAYAESPRALISGDAPSQVEREVPGPCLNTHSLSHRSPQLPGLPHPKQPSV
notes: TONSL alternative splicing
B9: KMRAIQAEGGHGQACCGGAWGWAPGDGGPQGMLTHTLPTLGFQSAWTWRREDADRAWRTPKACASRRWSI (peptide, listed as Homo sapiens)
chain: KMRAIQAEGGHGQACCGGAWGWAPGDGGPQGMLTHTLPTLGFQSAWTWRREDADRAWRTPKACASRRWSI
notes: LRRC45 alternative splicing
B10: KGSVERRSVSLGHPAEGWAWAERSLQPGMTTANTGCLSFHHRGCLLPVLPKLHCGLGGLPLVRAKEIKRVQRAGESSLPVKGLLTVASAVIAVLWGRPSEVTGENEAQHD (peptide, listed as Homo sapiens)
chain: KGSVERRSVSLGHPAEGWAWAERSLQPGMTTANTGCLSFHHRGCLLPVLPKLHCGLGGLPLVRAKEIKRVQRAGESSLPVKGLLTVASAVIAVLWGRPSEVTGENEAQHD
notes: ILDR1 alternative splicing
B11: PVAIKPGTGPPNNSSIHGGSKRSENSYCRDLRGQLRAICCSSYSHDRHTTEERGSRGRHVWRIRRLHTSGLPCCCHSGPHPRRLPDILRLVTSTKTDHTNTTEGTLDYL (peptide, listed as Homo sapiens)
chain: PVAIKPGTGPPNNSSIHGGSKRSENSYCRDLRGQLRAICCSSYSHDRHTTEERGSRGRHVWRIRRLHTSGLPCCCHSGPHPRRLPDILRLVTSTKTDHTNTTEGTLDYL
notes: RBM47 alternative splicing
B12: LLEPFRRGEPGPRGLLSGSSRGGEGPGRSIEAAPATPLPCCRKNPCRPQPSRFLPPRVLLVIILPKLDCPKLGF (peptide, listed as Homo sapiens)
chain: LLEPFRRGEPGPRGLLSGSSRGGEGPGRSIEAAPATPLPCCRKNPCRPQPSRFLPPRVLLVIILPKLDCPKLGF
notes: AMACR alternative splicing
B13: HYKLIQQPISLFSITDRLHKTFSQLPSVHLCSITFQWGHPPIFCSTNDICVTANFCISVTFLKPCFLLHEASASQ (peptide, listed as Homo sapiens)
chain: HYKLIQQPISLFSITDRLHKTFSQLPSVHLCSITFQWGHPPIFCSTNDICVTANFCISVTFLKPCFLLHEASASQ
B14: YAYKDFLWCFPFSLVFLQEIQICCHVSCLCCICCSTRICLGCLLELFLSRALRALHVLWNGFQLHCQ (peptide, listed as Homo sapiens)
chain: YAYKDFLWCFPFSLVFLQEIQICCHVSCLCCICCSTRICLGCLLELFLSRALRALHVLWNGFQLHCQ

Columns and labels:
[1] = test system: CD8+ T cells in PBMCs from human patients with metastatic castrate-resistant prostate cancer; assay: Patient PBMC restimulation assay (in vitro immunogenicity, TNFα/IFNγ intracellular flow cytometry); assay type: cell-based; settings: 9-mer peptide; for Maximum fold change over negative control: TNFα+IFNγ+CD8+ T cells, highest across PBMC donors evaluated; for Maximum frequency of TNFα^+IFNγ^+CD8^+ T cells (Percent): greatest frequency among all tested PBMC donors; for Immunogenic: patient PBMC restimulation
Protocol: PBMCs from human patients with metastatic castrate-resistant prostate cancer were thawed using media (RPMI 1640 supplemented with Glutamax, 10% HI FBS, and 1× Sodium Pyruvate). Cells were counted and plated in a 96 well round bottom microplate at a concentration of 250,000 viable cells per well. Lyophilized peptides were solubilized in 100% DMSO and diluted in media to 10 μg/mL. Neoantigen peptides were added in equal volume to PBMCs for a final concentration of 5 μg/mL. CEF Peptide Pool “Plus” (Cellular Technologies, Ltd.) was utilized as a positive control and DMSO at the same final concentration as the experimental peptides was utilized as a negative control. Human IL-15 (Peprotech) was added to all wells at final concentration of 10 ng/mL.
Plates were incubated at 37° C. (5% CO2) for a total of 13 days. Media was refreshed every 2 days with IL-15 (10 ng/mL final concentration) and IL-2 (R&D systems, 10 IU/mL final concentration). On day 12, PBMCs were re-stimulated with identical experimental peptides or controls, at same concentration as peptide stimulation on Day 1. After 1-hour incubation, protein Inhibitor Cocktail (eBioscience) was added to every well and plate was incubated overnight.
On day 13, cells were stained for intracellular flow cytometry analysis. The cells were washed with PBS and stained with Live/Dead Fixable Aqua Dead Cell stain (Thermo-Fisher). Following the live/dead stain, cells were blocked using Biotin-Free Fc Receptor Blocker (Accurate Chemical & Scientific Corp). Extracellular cellular flow panel ([…] per well in 50 μL) consisted of CD3 PerCP-Cy5.5 (Biolegend), CD4 BV421 (Biolegend), and CD8 APC-Cy7 (Biolegend). After extracellular staining, cells were fixed using Foxp3/fTranscription Factor Staining Buffer Set (eBioscience) and stained for intracellular proteins (1:50 dilution) using TNFα FITC (R&D Systems) and IFNγ BV785 (Biolegend). Cells were washed and resuspended in stain buffer and analyzed using a BD Celesta flow cytometer.
Flow cytometry cell staining analysis was completed using FlowJo v10. Cells were gated on live, singlet, CD3+ cells. The CD8+ T cells were analyzed for TNFα/IFNγ expression and the frequency of double positive TNFα/IFNγ CD8+ T cells was recorded. Responses were assessed to be positive when the frequency of double positive TNFα/IFNγ CD8+ T cells due to stimulation with an experimental peptide was increased greater than or equal to 2-fold over the DMSO only negative control for that patient. Peptides were analyzed in 1 to 7 patient samples.
The 9 mer fragments shown in Table 13 were assessed for their ability to activate T cells using the Patient PBMC restimulation assay described in Example 1 using TNFα and IFNγ production by CD8^+ T cells as a readout. Self-antigens shown in Table 15 were also used in the assays. […] PBMCs from ten patients were evaluated.

[2] = test system: CD8+ and CD4+ T cells (autologous CD3+ Pan-T cells isolated from human normal PBMCs); assay: Exogenous autologous normal donor restimulation assay (15-mer overlapping peptide pools on CD1c+ dendritic cells, TNFα/IFNγ flow cytometry); assay type: cell-based; settings: 15-mer overlapping peptide pool; for Max. Fold Change over background CD4+ TNFαINFγ double positive DP / Max. Fold Change over background CD8+ TNFαINFγ double positive DP / Max. Frequency of CD4+ TNFαINFγ DP / Max. Frequency of CD8+ TNFαINFγ DP: Table 28, additional neoantigens, highest across normal donors; for Maximum Fold Change Over Background CD4+ cells / Maximum Fold Change Over Background CD8+ cells / Maximum Frequency of TNFα/IFNγ Double Positive CD4+ T cells / Maximum Frequency of TNFα/IFNγ Double Positive CD8+ T cells: Table 25; for Maximum Fold Change Over Background CD4+ cells: TNFα+IFNγ+ CD4+ T cells; for Maximum Fold Change Over Background CD4+ cells / Maximum Fold Change Over Background CD8+ cells: highest fold change over negative control across normal donors; for Maximum Fold Change Over Background CD8+ cells: TNFα+IFNγ+ CD8+ T cells; for Maximum Frequency of TNFα/IFNγ Double Positive CD4+ T cells / Maximum Frequency of TNFα/IFNγ Double Positive CD8+ T cells: highest frequency across normal donors
Method in brief: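 Autologous CD3+ Pan-T cells from normal donors were co-cultured 12 days with irradiated CD1c+ DCs pulsed with 15-mer overlapping neoantigen peptide pools at 2.5–10 μg/mL, with IL-15 and IL-2 support. Cells were restimulated on day 11, then TNFα/IFNγ double-positive CD8+ and CD4+ frequencies read by flow. Positive means ≥3-fold over DMSO and ≥0.01%.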

Molecule	Maximum fold change over negative control [1]	Maximum frequency of TNFα^+IFNγ^+CD8^+ T cells (Percent) [1] [%]	Immunogenic [1]	Max. Fold Change over background CD4+ TNFαINFγ double positive DP [2]	Max. Fold Change over background CD8+ TNFαINFγ double positive DP [2]	Max. Frequency of CD4+ TNFαINFγ DP [2]	Max. Frequency of CD8+ TNFαINFγ DP [2]	Maximum Fold Change Over Background CD4+ cells [2]	Maximum Fold Change Over Background CD8+ cells [2]	Maximum Frequency of TNFα/IFNγ Double Positive CD4+ T cells [2]	Maximum Frequency of TNFα/IFNγ Double Positive CD8+ T cells [2]
P50 (QMAVIQYSCMGLMVFAM; listed as Homo sapiens) [Peptide P50]	5.14	0.190	Yes								
P27 (LHPQRETFTPRWSGANYWKLAFPVGAEGTFPAAATQRGVVRPA; listed as Homo sapiens) [Peptide P27]	3.43	0.430	Yes								
B1				293.94	4.72	1.48	0.09				
B2								7.15	1.89	0.04	0.08
B3								36.13	8.89	0.04	0.16
B4								4.89	7.92	0.04	0.38
B5				128.76	6.35	0.18	0.6				
B6				129.8	1544.74	0.49	58.7				
B7				113.91	4.02	0.43	0.35				
B8				7.86	2.61	0.11	0.1				
B9				9.48	16.25	0.01	0.26				
B10				184.87	6.85	0.63	0.1				
B11				78.51	4.96	0.61	0.07				
B12				60.93	11.32	0.23	0.43				
B13								50.19	5.56	0.39	0.1
B14								111.97	4.17	0.87	0.08
